# Patent US20150299277A1, “AGENT FOR TREATING OR PREVENTING SYSTEMIC INFLAMMATORY RESPONSE SYNDROME” (THE UNIVERSITY OF TOKYO, priority 2012, published 2015)
# Entries after “also recorded” stand apart in the source; their conditions may differ.
# Assays:
# each histone [1] = assay: ELISA binding assay; set-up: species or system human; settings: immobilized recombinant histone
# Protocol: Recombinant human histone (NEB) was adjusted to a concentration of 1 μg/mL in TBS, added to a 96 well ELISA plate, and immobilized at 4° C. overnight. The solution was discarded, a blocking buffer (TBS, 0.1% Triton-X100, 1% BSA) was added, and the plate was incubated at room temperature for 2 hr. The plate was washed four times with a wash buffer (TBS, 0.1% Triton-X100), recombinant PTX3 diluted to various concentrations with the blocking buffer was added to each well, and reacted at room temperature for 1 hr. After washing four times with the wash buffer, HRP-labeled antibody diluted with the blocking buffer was added, and reacted at room temperature for 1 hr. After washing four times with the wash buffer, TMB solution was added to carry out a color development reaction for 30 min, and the absorbance at 450 nm was measured. […]
# The binding level between immobilized each recombinant histone and tag-free recombinant human PTX3 (rhPTX3) was measured by binding assay (ELISA). […] ELISA was performed with duplicate wells for each point, and means and standard deviations were calculated from three independent experiments.
# The binding level between immobilized each recombinant histone and a tagged human PTX3 fragment was measured by binding assay (ELISA). […] ELISA was performed with duplicate wells for each point, and means and standard deviations were calculated from three independent experiments.
# each histone variant = assay: Aggregation of each histone variant and PTX3 fragment, absorbance at 310 nm; type: binding; settings: histone variant 50 μg/mL, PTX3 fragment 30 μg/mL
# Protocol: Each histone variant (50 μg/mL) and each PTX3 fragment (30 μg/mL) were mixed, and the absorbance at the wavelength of 310 nm was measured. Before mixing, samples were dialyzed against 4 mM CaCl2-containing TBS.
# each histone [2] = assay: BIAcore / surface plasmon resonance (SPR) measurement; type: binding, human; settings: immobilized recombinant histone
# Protocol: For the measurement, BIAcore 3000 or T200 (GE Healthcare) was used. Recombinant human histone was immobilized on CM5 sensor chip by an amine coupling kit (GE Healthcare). The reaction with recombinant PTX3 was performed using a buffer (150 mM NaCl, 20 mM HEPES, 0.005% surfactant P20 (pH 7.4)) at a flow rate of 20 μl/min. Measurement was performed using the buffer containing […]. The sensor chip was regenerated in IM sodium acetate (10 μL, pH 7.2) and 10 mM NaOH (10 μL).
# The binding of immobilized each recombinant histone, and Myc- and His-tagged human PTX3 fragment was measured by surface plasmon resonance (SPR). The highest concentration of each PTX3 was as follows. full-length PTX3: 1 nM, N-terminal domain of PTX3: 5 nM, C-terminal domain of PTX3: 50 nM. The assay buffer contained 4 mM CaCl2 (Ca^2+) or 4 mM EDTA/EGTA. The affinity measured by SPR was calculated from three experiments.
# Calf Thymus Histones = assay: Aggregation with histone, absorbance at 310 nm; type: binding; settings: mixture with Calf Thymus Histones
# Protocol: The lower left figure and the lower right figure show the measurement results of absorbance at 310 nm of a mixture of a wild-type or oligomer formation capacity-deficient mutant of PTX3 N-terminal domain having each concentration and 0.1 mg/mL Calf Thymus Histones at 1:1 vol.
# The aggregation activity of PTX3 and other pentraxins to histone was evaluated. Calf Thymus Histones (50 μg/mL) were mixed with a PTX3 fragment or the other pentraxin at each concentration, and the absorbance at the wavelength of 310 nm was measured. Before mixing, samples were dialyzed against 4 mM CaCl2-containing TBS.
# [3] = tested on: Calf Thymus Histones on HUVEC; assay: Cytotoxic assay: suppression of histone cytotoxicity on HUVEC; type: cell-based, human; settings: 100 μg/mL Calf Thymus Histones, 40 μg/mL protein, 1 hr, PI staining, FACS
# Protocol: After culturing for 1 hr in a medium concurrently containing 100 μg/mL Calf Thymus Histones and APC (200 nM), PTX3 (40 μg/mL), CRP (40 μg/mL) or SAP (40 μg/mL), the level of toxic activity was measured by FACS.
# Normal human umbilical vein endothelial cells (HUVECs) were cultured in EGM2 medium (Clonetics). The cells after culture were washed with PBS, added with Opti-MEM medium containing an product of incubation of activated protein C (APC), PTX3, C reactive protein (CRP) or Serum amyloid P component (SAP) with histone for 1 hr, and the cells were further cultured for 1 hr. Propidium iodide (PI) was added to the medium after culture at a final concentration of 10 μg/mL, and the cells were stained for 10 min. The cells were washed with PBS, detached and analyzed by flow cytometry.
# The histone cytotoxicity on HUVEC was evaluated by propidium iodide (PI) staining.
# Lastly, capacity of suppressing the cytotoxic activity of histone was confirmed. Since this experiment requires a certain amount of protein and an endotoxin-elimination as treatment, a protein was expressed and purified at a 500 mL culture scale, and subjected to an endotoxin-elimination treatment (FIG. 18). In the case of PTX3 N-terminal domain, about 10 mg was obtained at a 500 mL culture scale, and a loss by the endotoxin-elimination treatment was scarcely observed. […]
Molecule,bindability to each histone (binding assay) (each histone [1]),"aggregation with each histone variant, absorbance at 310 nm (each histone variant)",affinity for each histone by SPR (each histone [2]),"aggregation with Calf Thymus Histones, absorbance at 310 nm (Calf Thymus Histones)",suppression of toxic activity of Calf Thymus Histones on HUVEC [3]
"C-terminal domain of PTX3: C-terminal domain human PTX3 (179-381 amino acids), Myc- and His-tagged (protein, left off: small tags and cut ends, C-terminal domain human PTX3 (179-381 amino acids), Myc- and His-tagged) CETAILFPMRSKKIFGSVHPVRPMRLESFSACIWVKATDVLNKTILFSYGTKRNPYEIQLYLSYQSIVFVVGGEENKLVAEAMVSLGRWTHLCGTWNSEEGLTSLWVNGELAATTVEMATGHIVPEGGILQIGQEKNGCCVGGGFDETLAFSGRLTGFNIWDSVLSNEEIRETGGAESCHIRGNIVGWGVTEIQPHGGAQYVS",weak,aggregated,full-length PTX3>N-terminal domain>C-terminal domain,weaker than that of the full-length PTX3 and N-terminal domain of PTX3,
"CRP: C-reactive protein, short pentraxin used as comparator (protein, UniProt P02741 19-224, looked up) C-reactive protein: QTDMSRKAFVFPKESDTSYVSLKAPLTKPLKAFTVCLHFYTELSSTRGYSIFSYATKRQDNEILIFWSKDIGYSFTVGGSEILFEVPEVTVAPVHICTSWESASGIVEFWVDGKPRVRKSLKKGYTVGAEASIILGQEQDSFGGNFEGSQSLVGDIGNVNMWDFVLSPDEINTIYLGGPFSPNVLNWRALKYEVQGEVFTKPQLWP",,,,no aggregation capacity; also recorded: scarcely showed an aggregation activity,do not have such suppressive effect
"N-terminal domain that lost the oligomer formation capacity: N-terminal domain human PTX3 wherein the 47th, 49th, 103rd cysteine residues were replaced with serine residue (protein, left off: small tags and cut ends, N-terminal domain human PTX3 wherein the 47th, 49th, 103rd cysteine residues were replaced with serine residue) ENLYFQGENSDDYDLMYVNLDNEIDNGLHPTEDPTPSDSGQEHSEWDKLFIMLENSQMRERMLLQATDDVLRGELQRLREELGRLAESLARPSAPGAPAEARLTSALDELLQATRDAGRRLARMEGAEAQRPEEAGRALAAVLEELRQTRADLHAVQGWAARSWLPAG",decrease; also recorded: scarcely bound,,affinity decreased as compared to the wild-type,decrease; also recorded: decreased aggregation activity,
